In US12122830 (ABL BIO, dated 2024):

Tests used:
[1] = target: T1, human ROR1 expressed on the cell surface (human, UniProt Q01973 30-937); experiment: flow cytometry on Mino cells (MCL), C2E3 IgG at 10 µg/mL, MFI of anti-ROR1 / MFI of 2nd Ab
T1 construct: whole, on cells; On JeKo-1 and Mino cells and other cancer cell lines (endogenous) and on transfected CHO and MC38 cells; also called cell surface-expressed ROR1; CHO-human ROR1
Method: (§1) For the cell lines, the binding to ROR1 was analyzed with FACS (FACSCalibur, BD Biosciences) by using the anti-ROR1 antibody of the present invention.
(§2) Specifically, after disassociating each cell line and washing in PBS, the number of cells was counted and set as 2 ×10^5 cells/200 µl PBS, and then the clone C2E3 among ROR1 monoclonal antibodies prepared in Example 3 was treated in 10 µg/mL, and it was reacted at 4° C. for 1 hour. After reaction, cells were washed in PBS, and then the FITC-labeled constant region (Fc)-specific antibody (Goat anti-human IgG FITC conjugate, Fc specific, Sigma, F9512, concentration: 2.0 mg/ml) was suspended in 2 µl/1 ×10^5 cells/200 µl PBS, and it was reacted at 4° C. for 1 hour. After reaction, cells were washed in PBS, it was analyzed using a FACSCalibur device. The negative control group was treated only with the FITC-labeled constant region (Fc)-specific antibody. To compare the expression degrees of ROR1 among the cancer cell lines, the value of the result for the peak shift in the experimental group treated with the ROR1 monoclonal antibody (C2E3) of the present invention was divided by the result for the peak shift in the control group (Mean Fluorescence Intensity Ratio MFI Ratio: MFI of anti-ROR1/MFI of 2nd Ab).

[2] = target: T1, human ROR1 expressed on the cell surface; experiment: flow cytometry on NCI-H1975 cells (lung cancer), C2E3 IgG at 10 µg/mL, MFI of anti-ROR1 / MFI of 2nd Ab
Method: as §1, §2

[3] = target: T1, human ROR1 expressed on the cell surface; experiment: flow cytometry on HCC1143 cells (breast cancer), C2E3 IgG at 10 µg/mL, MFI of anti-ROR1 / MFI of 2nd Ab
Method: as §1, §2

[4] = target: T1, human ROR1 expressed on the cell surface; experiment: flow cytometry on MDA-MB-231 cells (breast cancer), C2E3 IgG at 10 µg/mL, MFI of anti-ROR1 / MFI of 2nd Ab
Method: as §1, §2

[5] = target: T1, human ROR1 expressed on the cell surface; experiment: flow cytometry on MKN-28 cells (gastric cancer), C2E3 IgG at 10 µg/mL, MFI of anti-ROR1 / MFI of 2nd Ab
Method: as §1, §2

[6] = target: T1, human ROR1 expressed on the cell surface; experiment: flow cytometry on SNU-16 cells (gastric cancer), C2E3 IgG at 10 µg/mL, MFI of anti-ROR1 / MFI of 2nd Ab
Method: as §1, §2

[7] = target: T1, human ROR1 expressed on the cell surface; experiment: flow cytometry on SNU-1750 cells (gastric cancer), C2E3 IgG at 10 µg/mL, MFI of anti-ROR1 / MFI of 2nd Ab
Method: as §1, §2

[8] = target: T1, human ROR1 expressed on the cell surface; experiment: flow cytometry on BT474 cells (breast cancer), C2E3 IgG at 10 µg/mL, MFI of anti-ROR1 / MFI of 2nd Ab
Method: as §1, §2

[9] = target: T1, human ROR1 expressed on the cell surface; experiment: flow cytometry on HCC70 cells (breast cancer), C2E3 IgG at 10 µg/mL, MFI of anti-ROR1 / MFI of 2nd Ab
Method: as §1, §2

[10] = target: T1, human ROR1 expressed on the cell surface; experiment: flow cytometry on Jurkat cells (T cell leukemia), C2E3 IgG at 10 µg/mL, MFI of anti-ROR1 / MFI of 2nd Ab
Method: as §1, §2

[11] = target: T1, human ROR1 expressed on the cell surface; experiment: flow cytometry on 697 cells (ALL), C2E3 IgG at 10 µg/mL, MFI of anti-ROR1 / MFI of 2nd Ab
Method: as §1, §2

[12] = target: T1, human ROR1 expressed on the cell surface; experiment: flow cytometry on H460 cells (lung cancer), C2E3 IgG at 10 µg/mL, MFI of anti-ROR1 / MFI of 2nd Ab
Method: as §1, §2

[13] = target: T1, human ROR1 expressed on the cell surface; experiment: flow cytometry on DLD-1 cells (colon cancer), C2E3 IgG at 10 µg/mL, MFI of anti-ROR1 / MFI of 2nd Ab
Method: as §1, §2

[14] = target: T1, human ROR1 expressed on the cell surface; experiment: flow cytometry on HCC1187 cells (breast cancer), C2E3 IgG at 10 µg/mL, MFI of anti-ROR1 / MFI of 2nd Ab
Method: as §1, §2

[15] = target: T1, human ROR1 expressed on the cell surface; experiment: flow cytometry on Kasumi-2 cells (ALL), C2E3 IgG at 10 µg/mL, MFI of anti-ROR1 / MFI of 2nd Ab
Method: as §1, §2

T1 sequence (Q01973 30-937): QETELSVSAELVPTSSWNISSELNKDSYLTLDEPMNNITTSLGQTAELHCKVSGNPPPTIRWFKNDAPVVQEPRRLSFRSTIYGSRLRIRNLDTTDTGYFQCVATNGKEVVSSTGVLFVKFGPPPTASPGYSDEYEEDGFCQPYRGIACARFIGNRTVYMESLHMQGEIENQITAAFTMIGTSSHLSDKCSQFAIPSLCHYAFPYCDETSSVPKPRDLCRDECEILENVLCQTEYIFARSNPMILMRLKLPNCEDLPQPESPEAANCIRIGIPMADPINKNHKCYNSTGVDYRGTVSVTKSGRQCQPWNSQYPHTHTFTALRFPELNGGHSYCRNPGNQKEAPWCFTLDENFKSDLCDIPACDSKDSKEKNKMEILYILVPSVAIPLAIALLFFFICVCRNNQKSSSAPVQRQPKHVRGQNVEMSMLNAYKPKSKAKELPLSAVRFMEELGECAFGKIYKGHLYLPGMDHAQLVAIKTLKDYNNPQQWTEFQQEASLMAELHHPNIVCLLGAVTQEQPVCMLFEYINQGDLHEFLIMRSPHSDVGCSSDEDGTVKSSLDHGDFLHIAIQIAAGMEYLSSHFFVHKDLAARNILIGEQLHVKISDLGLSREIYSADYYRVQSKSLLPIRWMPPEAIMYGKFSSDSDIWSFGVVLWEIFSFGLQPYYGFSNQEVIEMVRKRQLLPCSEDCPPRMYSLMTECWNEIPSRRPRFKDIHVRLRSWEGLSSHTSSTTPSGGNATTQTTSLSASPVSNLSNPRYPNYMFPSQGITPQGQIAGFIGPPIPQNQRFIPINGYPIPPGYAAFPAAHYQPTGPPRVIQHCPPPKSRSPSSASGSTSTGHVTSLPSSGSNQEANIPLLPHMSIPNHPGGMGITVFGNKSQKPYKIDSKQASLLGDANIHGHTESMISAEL

B1: C2E3 anti-ROR1 IgG antibody (antibody, V domains shown)
VH: EVQLLESGGGLVQPGGSLRLSCAASGFTFSNYAMSWVRQAPGKGLEWVSSISHNSGSTYYADSVKGRFTISRDNSKNTLYLQMNSLRAEDTAVYYCAKFISARKSLGRSYSNGMDVWGQGTLVTVSS
VL: QSVLTQPPSASGTPGQRVTISCTGSSSNIGSNDVTWYQQLPGTAPKLLIYADSKRPSGVPDRFSGSKSGTSASLAISGLRSEDEADYYCGTWDYSLSGYVFGGGTKLTVLG
What does the source list for B1?
Mean Fold Ratio [1]: 7.2; Mean Fold Ratio [2]: 4.2; Mean Fold Ratio [3]: 3.2; Mean Fold Ratio [4]: 8.8; Mean Fold Ratio [5]: 4.9; Mean Fold Ratio [6]: 2.4; Mean Fold Ratio [7]: 3.9; Mean Fold Ratio [8]: 1.7; Mean Fold Ratio [9]: 3.8; Mean Fold Ratio [10]: 1.7; Mean Fold Ratio [11]: 12; Mean Fold Ratio [12]: 10.9; Mean Fold Ratio [13]: 17.6; Mean Fold Ratio [14]: 9.3; Mean Fold Ratio [15]: 11.5
